# Legend:
# Assay in all cases: protein-fragment complementation
# [1] = molecular target: Ssb1 (UniProt P11484)
# [2] = molecular target: Sac6 (UniProt P32599)
# [3] = molecular target: Ygl242c (UniProt P53066)
# [4] = molecular target: Bbc1 (UniProt P47068)
# [5] = molecular target: Smi1 (UniProt P32566)
# [6] = molecular target: Ste20 (UniProt Q03497)
# [7] = molecular target: Sfk1 (UniProt P35735)
# [8] = molecular target: Cmd1 (UniProt P06787)
# [9] = molecular target: Sbp1 (UniProt P10080)
# [10] = molecular target: Lsb3 (UniProt P43603)
# [11] = molecular target: Cdc3 (UniProt P32457)
# [12] = molecular target: Arc40 (UniProt P38328)
# [13] = molecular target: Ysc84 (UniProt P32793)
# [14] = molecular target: Cdc10 (UniProt P25342)
# [15] = molecular target: Mid2 (UniProt P36027)
# [16] = molecular target: Rvs167 (UniProt P39743)
# [17] = molecular target: Chc1 (UniProt P22137)
# [18] = molecular target: Sla1 (UniProt P32790)
# [19] = molecular target: Arc15 (UniProt P40518)
# [20] = molecular target: Ssb2 (UniProt P40150)
# [21] = molecular target: Srv2 (UniProt P17555)
# [22] = molecular target: Hek2 (UniProt P38199)
# [23] = molecular target: Aim21 (UniProt P40563)
# [24] = molecular target: Hsp104 (UniProt P31539)
# [25] = molecular target: Ssa1 (UniProt P10591)
# [26] = molecular target: Las17 (UniProt Q12446)
# [27] = molecular target: Pan1 (UniProt P32521)
# [28] = molecular target: Pkh2
# [29] = molecular target: Nap1 (UniProt P25293)
# [30] = molecular target: Syp1 (UniProt P25623)
# [31] = molecular target: Myo5 (UniProt Q04439)
# [32] = molecular target: Tdh3 (UniProt P00359)
# [33] = molecular target: Pfk1 (UniProt P16861)
# [34] = molecular target: Bmh1 (UniProt P29311)
# [35] = molecular target: Bzz1 (UniProt P38822)
# [36] = molecular target: Arc18 (UniProt Q05933)
# [37] = molecular target: Yor1 (UniProt P53049)
# [38] = molecular target: Pab1 (UniProt P04147)
# [39] = molecular target: Tif4631 (UniProt P39935)
# [40] = molecular target: Sla2 (UniProt P33338)
# [41] = molecular target: Arc19 (UniProt P33204)
# [42] = molecular target: Osh2 (UniProt Q12451)
# [43] = molecular target: Vrp1 (UniProt P37370)
# [44] = molecular target: Ssz1 (UniProt P38788)
# Chain of UniProt P38199 (P38199 whole entry): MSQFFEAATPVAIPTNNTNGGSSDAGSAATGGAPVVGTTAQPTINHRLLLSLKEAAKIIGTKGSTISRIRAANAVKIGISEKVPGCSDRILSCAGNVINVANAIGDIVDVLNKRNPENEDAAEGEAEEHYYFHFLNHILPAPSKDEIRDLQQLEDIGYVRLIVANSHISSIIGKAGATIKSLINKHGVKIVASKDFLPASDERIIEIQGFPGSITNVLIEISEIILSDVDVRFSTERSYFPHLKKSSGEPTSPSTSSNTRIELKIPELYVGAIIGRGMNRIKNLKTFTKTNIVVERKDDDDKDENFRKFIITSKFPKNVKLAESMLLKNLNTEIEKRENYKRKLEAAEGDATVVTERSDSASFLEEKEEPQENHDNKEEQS
# Chain of UniProt P25623 (P25623 whole entry): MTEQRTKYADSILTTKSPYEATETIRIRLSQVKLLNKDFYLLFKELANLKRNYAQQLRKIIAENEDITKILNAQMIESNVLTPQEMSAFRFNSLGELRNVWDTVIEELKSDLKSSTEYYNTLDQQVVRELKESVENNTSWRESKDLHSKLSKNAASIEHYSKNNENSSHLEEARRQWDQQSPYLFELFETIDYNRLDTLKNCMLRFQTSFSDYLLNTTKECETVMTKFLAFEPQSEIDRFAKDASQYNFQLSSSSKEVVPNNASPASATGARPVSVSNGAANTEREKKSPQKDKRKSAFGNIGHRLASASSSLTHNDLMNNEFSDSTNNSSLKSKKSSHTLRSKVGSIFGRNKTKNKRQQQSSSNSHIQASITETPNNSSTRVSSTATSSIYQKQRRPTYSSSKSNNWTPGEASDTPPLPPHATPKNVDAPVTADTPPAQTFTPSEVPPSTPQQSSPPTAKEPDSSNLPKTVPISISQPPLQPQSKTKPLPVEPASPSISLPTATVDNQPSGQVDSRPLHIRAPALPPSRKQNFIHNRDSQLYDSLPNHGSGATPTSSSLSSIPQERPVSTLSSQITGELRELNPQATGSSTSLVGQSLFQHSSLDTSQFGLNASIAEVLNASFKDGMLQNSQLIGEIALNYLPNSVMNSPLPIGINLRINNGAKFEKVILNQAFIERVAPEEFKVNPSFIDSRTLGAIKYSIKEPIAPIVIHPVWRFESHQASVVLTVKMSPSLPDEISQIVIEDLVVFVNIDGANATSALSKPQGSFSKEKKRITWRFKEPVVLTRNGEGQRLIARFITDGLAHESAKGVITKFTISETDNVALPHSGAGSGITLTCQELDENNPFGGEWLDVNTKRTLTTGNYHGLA
# Chain of UniProt Q05933 (Q05933 whole entry): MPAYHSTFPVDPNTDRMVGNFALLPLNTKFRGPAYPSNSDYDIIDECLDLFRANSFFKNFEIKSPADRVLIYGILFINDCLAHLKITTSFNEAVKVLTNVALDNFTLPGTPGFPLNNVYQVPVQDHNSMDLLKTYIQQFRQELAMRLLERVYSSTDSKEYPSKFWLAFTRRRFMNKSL
# Chain of UniProt P33204 (P33204 whole entry): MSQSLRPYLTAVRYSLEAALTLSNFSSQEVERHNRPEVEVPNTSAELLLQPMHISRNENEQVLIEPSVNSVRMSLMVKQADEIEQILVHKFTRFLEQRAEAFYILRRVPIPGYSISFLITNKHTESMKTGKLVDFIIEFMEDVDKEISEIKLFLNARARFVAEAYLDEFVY
# Chain of UniProt P40518 (P40518 whole entry): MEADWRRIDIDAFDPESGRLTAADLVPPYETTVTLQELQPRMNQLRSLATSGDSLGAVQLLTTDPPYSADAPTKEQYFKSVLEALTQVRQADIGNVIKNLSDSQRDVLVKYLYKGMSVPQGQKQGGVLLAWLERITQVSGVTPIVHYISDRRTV
# Chain of UniProt P29311 (P29311 whole entry): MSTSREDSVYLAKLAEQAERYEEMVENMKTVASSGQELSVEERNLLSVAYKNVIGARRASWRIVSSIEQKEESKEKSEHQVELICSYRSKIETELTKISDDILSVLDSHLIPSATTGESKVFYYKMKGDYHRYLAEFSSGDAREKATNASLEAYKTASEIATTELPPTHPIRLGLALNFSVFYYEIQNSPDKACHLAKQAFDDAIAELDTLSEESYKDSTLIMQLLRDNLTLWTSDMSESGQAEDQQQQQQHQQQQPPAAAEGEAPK
# Chain of UniProt P33338 (P33338 whole entry): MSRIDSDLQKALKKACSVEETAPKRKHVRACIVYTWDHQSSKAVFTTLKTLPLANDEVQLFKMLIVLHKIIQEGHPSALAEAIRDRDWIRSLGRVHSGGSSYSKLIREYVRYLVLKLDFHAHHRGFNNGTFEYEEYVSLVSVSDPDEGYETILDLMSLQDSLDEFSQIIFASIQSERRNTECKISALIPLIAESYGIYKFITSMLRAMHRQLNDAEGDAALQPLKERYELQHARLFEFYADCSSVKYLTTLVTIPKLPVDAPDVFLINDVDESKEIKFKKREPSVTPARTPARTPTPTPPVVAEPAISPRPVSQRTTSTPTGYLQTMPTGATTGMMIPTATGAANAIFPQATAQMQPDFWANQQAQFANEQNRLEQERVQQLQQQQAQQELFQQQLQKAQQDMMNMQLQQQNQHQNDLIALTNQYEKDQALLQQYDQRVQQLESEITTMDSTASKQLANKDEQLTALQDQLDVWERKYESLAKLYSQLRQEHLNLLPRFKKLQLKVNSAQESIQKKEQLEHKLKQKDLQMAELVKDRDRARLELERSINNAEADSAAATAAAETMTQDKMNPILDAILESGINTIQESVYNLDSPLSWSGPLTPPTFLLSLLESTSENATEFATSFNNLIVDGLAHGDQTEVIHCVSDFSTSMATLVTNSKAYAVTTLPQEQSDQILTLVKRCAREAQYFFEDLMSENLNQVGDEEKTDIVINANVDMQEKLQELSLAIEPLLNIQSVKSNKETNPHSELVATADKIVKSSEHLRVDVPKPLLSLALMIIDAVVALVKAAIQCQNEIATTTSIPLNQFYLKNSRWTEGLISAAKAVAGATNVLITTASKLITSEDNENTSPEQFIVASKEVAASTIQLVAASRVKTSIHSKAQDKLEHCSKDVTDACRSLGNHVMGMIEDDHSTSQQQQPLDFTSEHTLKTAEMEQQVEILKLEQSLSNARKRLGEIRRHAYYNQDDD
# Chain of UniProt P38328 (P38328 whole entry): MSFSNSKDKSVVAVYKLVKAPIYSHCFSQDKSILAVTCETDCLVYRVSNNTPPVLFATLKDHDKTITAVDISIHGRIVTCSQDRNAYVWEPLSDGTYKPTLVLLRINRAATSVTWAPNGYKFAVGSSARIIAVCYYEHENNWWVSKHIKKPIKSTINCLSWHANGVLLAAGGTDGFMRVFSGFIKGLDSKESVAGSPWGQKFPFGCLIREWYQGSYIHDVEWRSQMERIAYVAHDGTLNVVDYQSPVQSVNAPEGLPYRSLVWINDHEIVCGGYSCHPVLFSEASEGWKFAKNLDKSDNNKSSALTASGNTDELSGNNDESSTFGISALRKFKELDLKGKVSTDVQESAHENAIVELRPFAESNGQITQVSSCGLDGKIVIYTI
# Chain of UniProt P53049 (P53049 whole entry): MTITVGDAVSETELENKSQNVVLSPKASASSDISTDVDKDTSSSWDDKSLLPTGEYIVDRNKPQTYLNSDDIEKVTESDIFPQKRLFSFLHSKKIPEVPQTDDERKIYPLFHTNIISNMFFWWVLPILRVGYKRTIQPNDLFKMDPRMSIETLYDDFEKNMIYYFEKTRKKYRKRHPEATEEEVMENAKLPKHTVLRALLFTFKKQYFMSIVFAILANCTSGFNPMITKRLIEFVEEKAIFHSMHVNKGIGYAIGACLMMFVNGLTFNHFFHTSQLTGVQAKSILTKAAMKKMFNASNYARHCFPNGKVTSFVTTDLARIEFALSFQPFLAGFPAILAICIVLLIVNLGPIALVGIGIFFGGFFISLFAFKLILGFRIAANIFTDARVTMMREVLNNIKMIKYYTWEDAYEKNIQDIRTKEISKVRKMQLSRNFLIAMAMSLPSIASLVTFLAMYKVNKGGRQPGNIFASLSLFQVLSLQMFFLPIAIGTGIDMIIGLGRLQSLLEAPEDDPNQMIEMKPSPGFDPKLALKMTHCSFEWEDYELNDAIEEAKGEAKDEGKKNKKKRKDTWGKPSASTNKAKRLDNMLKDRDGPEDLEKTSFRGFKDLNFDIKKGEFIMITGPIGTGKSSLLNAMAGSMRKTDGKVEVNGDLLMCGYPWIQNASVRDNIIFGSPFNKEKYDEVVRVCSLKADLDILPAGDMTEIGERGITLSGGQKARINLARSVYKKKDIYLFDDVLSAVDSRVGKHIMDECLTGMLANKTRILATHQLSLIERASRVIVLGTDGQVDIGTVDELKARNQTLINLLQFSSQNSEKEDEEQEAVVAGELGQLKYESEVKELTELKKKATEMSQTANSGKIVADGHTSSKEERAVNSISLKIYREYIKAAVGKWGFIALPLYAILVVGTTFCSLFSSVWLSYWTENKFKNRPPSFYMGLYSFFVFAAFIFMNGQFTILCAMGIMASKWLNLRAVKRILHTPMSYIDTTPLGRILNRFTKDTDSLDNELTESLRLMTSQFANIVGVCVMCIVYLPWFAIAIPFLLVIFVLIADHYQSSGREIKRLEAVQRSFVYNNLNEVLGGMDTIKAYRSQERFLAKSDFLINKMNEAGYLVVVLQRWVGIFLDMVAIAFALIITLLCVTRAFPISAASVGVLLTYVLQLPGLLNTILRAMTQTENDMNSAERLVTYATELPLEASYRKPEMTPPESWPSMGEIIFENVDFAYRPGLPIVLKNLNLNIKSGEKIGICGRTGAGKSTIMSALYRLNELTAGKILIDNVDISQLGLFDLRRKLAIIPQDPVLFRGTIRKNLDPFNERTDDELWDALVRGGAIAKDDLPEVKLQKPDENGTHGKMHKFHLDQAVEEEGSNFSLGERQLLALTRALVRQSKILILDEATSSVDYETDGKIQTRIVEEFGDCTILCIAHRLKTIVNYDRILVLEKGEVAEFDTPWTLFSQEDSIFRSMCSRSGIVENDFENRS
# Chain of UniProt P06787 (P06787 whole entry): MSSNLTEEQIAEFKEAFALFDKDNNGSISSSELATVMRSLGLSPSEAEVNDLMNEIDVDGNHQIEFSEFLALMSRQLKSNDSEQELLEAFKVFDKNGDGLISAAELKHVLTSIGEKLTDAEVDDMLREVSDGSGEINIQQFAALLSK
substance,measurement,setting,value
Myo5 with SH3 controlMyo5 (from UniProt Q04439),interaction score,[1],0.929
same,interaction score,[2],0.825
same,interaction score,[3],0.929
same,interaction score,[4],0.758
same,interaction score,[5],0.532
same,interaction score,[6],0.421
same,interaction score,[7],0.716
same,interaction score,[8],0.582
same,interaction score,[9],0.827
same,interaction score,[10],0.624
same,interaction score,[11],0.433
same,interaction score,[12],0.952
same,interaction score,[13],0.463
same,interaction score,[14],0.374
same,interaction score,[15],0.857
same,interaction score,[16],0.5
same,interaction score,[17],0.578
same,interaction score,[18],0.539
same,interaction score,[19],0.901
same,interaction score,[20],0.93
same,interaction score,[21],0.628
same,interaction score,[22],0.36
same,interaction score,[23],0.756
same,interaction score,[24],0.76
same,interaction score,[25],0.902
same,interaction score,[26],0.877
same,interaction score,[27],0.926
same,interaction score,[28],0.102
same,interaction score,[29],0.463
same,interaction score,[30],0.527
same,interaction score,[31],0.898
same,interaction score,[32],0.965
same,interaction score,[33],0.855
same,interaction score,[34],0.82
same,interaction score,[35],0.823
same,interaction score,[36],0.87
same,interaction score,[37],0.432
same,interaction score,[38],0.785
same,interaction score,[39],0.662
same,interaction score,[40],0.644
same,interaction score,[41],0.766
same,interaction score,[42],0.745
same,interaction score,[43],0.912
same,interaction score,[44],0.83
Myo5 with SH3 extantMyo5 (from UniProt Q04439),interaction score,[1],0.942
same,interaction score,[2],0.823
same,interaction score,[3],0.938
same,interaction score,[4],0.762
same,interaction score,[5],0.518
same,interaction score,[6],0.401
same,interaction score,[7],0.736
same,interaction score,[8],0.26
same,interaction score,[9],0.824
same,interaction score,[10],0.62
same,interaction score,[11],0.422
same,interaction score,[12],0.969
same,interaction score,[13],0.463
same,interaction score,[14],0.366
same,interaction score,[15],0.864
same,interaction score,[16],0.503
same,interaction score,[17],0.568
same,interaction score,[18],0.523
same,interaction score,[19],0.9
same,interaction score,[20],0.932
same,interaction score,[21],0.632
same,interaction score,[22],0.321
same,interaction score,[23],0.762
same,interaction score,[24],0.758
same,interaction score,[25],0.914
same,interaction score,[26],0.876
same,interaction score,[27],0.926
same,interaction score,[28],0.11
same,interaction score,[29],0.48
same,interaction score,[30],0.513
same,interaction score,[31],0.901
same,interaction score,[32],0.97
same,interaction score,[33],0.869
same,interaction score,[34],0.815
same,interaction score,[35],0.814
same,interaction score,[36],0.868
same,interaction score,[37],0.454
same,interaction score,[38],0.8
same,interaction score,[39],0.665
same,interaction score,[40],0.621
same,interaction score,[41],0.768
same,interaction score,[42],0.756
same,interaction score,[43],0.917
same,interaction score,[44],0.835
